Test results as given in publication PMC10995199, “Architecture and regulation of filamentous human cystathionine beta-synthase” (Nature Communications, 2024).

Biological target: human cystathionine beta-synthase regulatory domain alone with the loop deletion (CBS^RDΔ516–525) (human) (UniProt P35520)
Test: SEC + native gel or EMSA; control constructs in analytical Superose 6 gel filtration and clear-native and blue-native PAGE (Supplementary Fig. 2); self-association

stoichiometry N: 2
Substance: human cystathionine beta-synthase regulatory domain alone with the loop deletion (CBS^RDΔ516–525) (from UniProt P35520 406-515) (domain or fragment)
